Assay results from the DeepSol protein solubility set.

Assay: soluble on expression in E. coli; label from the status in PepcDB or PDB records
For “GPGSMKIGVVLGSGGHTSEMLRAITEIPLSYWLDTRPFYVVSATDPHSASLASQLEQQRFERRVVVYTIPRAREVGQSYLMSIITTIRATLACFRFVCTEKPDVLLTNGPGVCVPVIAAAVCVASCAPWWYGRPAIVYMESFTCVSHLSLTGSLLAPWLADVFTVHWRALERAVARRRRRGTLVYVGSETARVTDGAPHRLRSLAAEQEAYALVTVGSTKFSSLVQAVVQPGVCATLHQRFGIKRLYVQHGTAEVVAPPEATLLPALPMAAGADASHPTQQWSCGGLLVEAFPYRPCLDAVIRGATLVITHAGAGTILEGLQAQRPLVVVPNRQLMSDHQLDLAEALANGGFLFCVQVAELAERLPLLDLTTLRPHGGMDAAQLQEALRLVLTGHSASGERAKAD”, the “soluble on expression in E. coli” value was “not soluble”.
For “GPGSMKLRCFLLRYYPPGITLEYETSAGQVGQKTIGLLSLTPTTPLEPLVDKIIAEEPLLNGKYHDQIVTYLQRLVEKLIAGNNPNQTFTLFKSLRAHMLPLTNCAFNKNGTKFVTGSYDRTCKVWETATGNELVSLEGHRNVVYCVGFNNPYGNRVATGSFDKTCKIWDGESGQCLHTLTGHVTEIVCMSFNPQSTLIGTGSMDNTAKVWDVETGQELHTLMDHTAEIVALNFNTYGDLIVTGSFDHTAKLWDVRTGTVVHTLREHRGEISSVQFNYASNLVVTGSIDRTCKLWDVASGRCVSTLRGHTDEVLDVAFSVSGNMVASASADTTARVYNTATCHCIASLNDHEGEISKLEFNPQGTKIITASGDKRCNLWSVETGQVLQSLVGHTDEIFSCSFNYEGDTILTGSKDNTCRIWKS”, the “soluble on expression in E. coli” value was “not soluble”.
With “GPGSMKRFGIWTRPSLGRRSFYAGLDDSRVMRLRRSNTTLNKPRGRDAFSLAFEKRIHLLPLTQVGDLYGLPVPPSAPGESSGGAAEETIRVLVVDLLLLEDVESLISFPASNPLYYEDWPTVSDNSEGEVPSDRRSGISSSLALGESGFSLPSSNKRHLRQYGDTTLLRNSFVREAAHGVSAQFHTAICINPFIDVDRFRREEAQVEMISAYRNILYEAAEVPDGRADVIRIPALCCDTCGPRFYHEIGKLNQQSLIKGFHRIGSEAKETLMLNPKFIVEVYVPLPFLQQFQRAFLEDAWETPESTLNPGRTALYPGLAPPRSLLPLEGWIGKRPELVEAIETEGRSLMSGVKYSLDGKPIEEREVLAELRVFGREKEQEEMLKREEETATQQGLEVAPNGNTVAPLRAGIDQN” the “soluble on expression in E. coli” value was “not soluble”.
For “GPGSMKSPHMARIGNSVYRDICPEDDPLCSNFGFEDYDLSRPTPMMRMSLLYNLHVSGESPSPAIDNMFRLAYRSRHGLVKIYKVMNVSAESKAWVADPKNRKCDAPGSWLCTGQYPPAKEIQEMLARRIDYGQLEDFNRGKRDDAYYRAYMRRIRNQGRG”, the “soluble on expression in E. coli” value was “soluble”.
In the case of “GPGSMLAASRLARGVAETVTRENFTISRLTNGLRVITCEDGNGITGMGLFSLNGPKFEEEGSFGAAAVMESLPLRSNTRMTTETISQSLGVFGNAYKVTNNREAMSVMLMMPRYHRKEGLDVLNGMWLHPTDNDEEFAVAKAQTLHRSSLMSRDATSMLFELVHKAGWSGRGLGNPLSPTEQQLEQLTLERFHAFHRRYTTPERTVLAATGVADHKTFVQEAEVRLQFPQATAPSLHSSSAETANKAAAATAQLHPYTGGCEYVQNTMAPESMNKFQEKNLSHIALFFQAIPMAHPDYFTFSVIQTLLGGGTSFSSGGPGKGMQTKLFREVLNREPNVHGMECITAWYSDGGLIGLYGSAPHEHVNNLLKIIIFQAASISQRVTPVHVEMAKNQLSSQLILLGEGREQLLNDMGFNLLVHNYTITPQETIQGSAQVTMARLHEVCAQLIEHPITFAVYGETKGMPEYRELVQALKKSYASLSKSTPA”, the “soluble on expression in E. coli” value is reported as “not soluble”.
For “GPGSMLASSSLVSVKRTLRIKVGTSTSERLRAAELDEPTTSSARPPPSAMDLSYITGKMPDTLPAYQTERAVWSATTFRSAWNKLHKAYASFLETDPERAAELRAKDWQGLALYNSYAETLHLMSLLPATLRTAITQHSSFDYTEVEELFVHLGQDVEVRGSGGWVIQLPPPTTADLQYLVKHIGRFGADGRGCVANTAHRASVWRGRHGEALGVTLRVGRYVPGAARALLPLAQRGSLLILSKAGMGKTTLLRDLAAALAQEPGTPRVTVVDTSNEIGGDGPIPLPYLGRCRRIQVAQRQDQGRVMMEVIQNHTPEYLIVDEIATEEEAEAAWSISQRGVHLIGTCHGEHLEGLLQNRALNLLVGGAAQAFLSNEERRLRNKMKKTVLERPYSSPFSFVVELHARNLGHLYVDVNKAVDLVLDEQPAQLNGAVGAAVELSALLPSRVEKLLRLHDERKRKLKYVAGTGTNDAEVGEEDDETATFSSAARGTVDEDGYTLLADDGGDPESKRSIAPSTYAAPNHASGRRPHWQAEKQRRHRKTDDELYGELKGSF”, the “soluble on expression in E. coli” value was “not soluble”.
For “GPGSMLLSVPEAHTEVITSLQFSPHHASVLCSTSGDDTAALWDLRNPSDSCNIARLTHHREPVNHALFIEESEPCLLTASDDRTIAYWDVREISQPVAVIRGFGDGINKMLRLPVSRRSGNACVNGGACCLIVSACDDGAVYIHDVALCGDTRRQSGMPVEGAGDTFSSTGNLVDRFMASTSTVNDLVLSPNPNLLLTASEDCAIRLWDIGPIFGGQRTQDERLVTSFDEFENPVNHIAVINSPRVTQFVQDEGQGGHSGCWLYAACSEFIFAVDLDPVSGALGEGARTLTGHQDYVRGLEFVGDDTLLTVSDDSTVIEWSLRTSNPVRQVKLHEGLVMASAVSAARDVLATGTDGGEMRVWRLPFLTE”, the “soluble on expression in E. coli” value was “not soluble”.
In the case of “GPGSMNGEFPVLVSHHKLLMLPTVGVARYDSGNAGIIGEQTHNFHVIPEIELIVVRVHGKMTEYQHNHLLLTSVLQLHAKPLHLFLTNASINIQHIFAMTITMLHAIRFCPSGSTGPCCKHRQIRPIEHNEKEHAALTYLKTIVTGWHPQQTINMIMVLFAQPQEIVVPQ”, the “soluble on expression in E. coli” value is reported as “not soluble”.
For “GPGSMNQLVVFLDIDNTLYSGEEYHSLAEQIRDGLVEYVGNWLQLTPQESEAYVVHCFEKYGLTIAGLMHEQKGFDAEAATDFLYSHCDFSHLQENPRLREMLSRLRRNHHLYFFTNASRRHATTVLQALGLSSDEFRMSGFTYEDQWAQTAPVPCNKPMRNAYIAVIKVLKKWLQDAEWVTAECMVMVDDSACNLIEPLALGLNAVWVSHGHPISDVLAEKMNTGRLFCITDIIELEDIIKQITINREN”, the “soluble on expression in E. coli” value was “soluble”.
For “GPGSMPAIVKQLPSSDDDNDQASLSPAKQYAQLGEESSPAGASRAELSNAEAGAEAEGLAQPQKTDASGAERVVDVEECSRLKAAGNELFKDGNISEALTLYRKALWCAPLKPVRPHHPATGESSGLPTPPNGSAPAASSHTATQRDETEVEQQPEDKTDYTLTAQVYCNAGFCLMKLDVKEEAAHMLSEAIRHDDSYLKAYIRRADCYYMMQKWSSAYGDYESYEKLGGVLDAQGCTRKAASKAKVDEEMQKMLGELKSLGNKILGNFGLSTDNFKFDKDPNTGGYSMRFER”, the “soluble on expression in E. coli” value was “soluble”.
In the case of “GPGSMPERCIGITTVQVGHIVGRGGSTLKGIQERTGATLCIVENGLQVKITADDAAKVAAAEAEVHKIVASQQNPDYEGPCGARLRKEAVELGQKRSKLFEEATRMREAGDHEGANKLVAMAKKAGEDMKARHREAALAIAKHNNEEKGKGPNYFDMHGLHLEEAMEMLKVRMSKLEEKPVGSTTAFEVIPGAGHHSAPGTQKLKRATLEYVQWKGYPCEEVNAGAFLVKVPGLGEGVLSKPEDGDKVPTKPKESATGVANKPKASGSAAASKSKAQSCCACM”, the “soluble on expression in E. coli” value is reported as “soluble”.
For “GPGSMPKSKRATIVPLTKTRSKTREEKDELINKIRDALDDYTDVYTFELSNIRTNILQQIREERRNDSRLFLGNNKLLMIALGRDDSSSQRPNLHKLSKYLTGSCGLLFTNLPHQDVKEYFKGVSADVFARTGQVATCPLLLRTGPLAQFPHSMFDHLSRLGLPIKLDKGVIVLLRDTTVCEVGDTLTAEAAQLLKLFGIQSAEFKLELTAHWAKGVVKRMSKKKKEEEN”, the “soluble on expression in E. coli” value was “soluble”.
With “GPGSMPSITQETLRRRAEFVRTGGRGSVRRTVKVAHRNTGDDKKVQQVLKRLNVSPFNDVDDAVLYRHDGTAYYFEKPKVQASMQSQCFVVSGAYDVKEASEVPS” the “soluble on expression in E. coli” value was “not soluble”.
For “GPGSMPSSSLSQSSAPRQPPLGDSGECRCSTLPPKPPLAGVEEPQPSDAEDPIPFLATMSMNQVGFLHARKCTRRDLLGTSLGNCPASENVLANGASHGIEATPLPGSRSATSTSFTSPTSAPLAPMAESECDVSYLEQMLMQIMDAAKAFANTSQAPSCDTAPQSADTLPACEYLLRKCFHFDTGAFKPRQQEVCLSVLAGVNTLAVCPTGWGKSLCFQFPMLVHRLLFQCRYTRWCRQAATAPAAAQQSSETAVKEGQTGASRFAGALPSAGLPAHLFSRFCVVVSPLLALMEDQAEKINAVDHLSAFVLSAKVGADREARVLAQLESPVCPLDILFVSPEN”, the “soluble on expression in E. coli” value was “not soluble”.
In the case of “GPGSMQAIITTAKSFAGDEKRPRDVKAAAAAPVLDWATMYTRRPAGTSTLFTLEAMVAKRMELLAWIDQLMNSPNVRSFSVVLDEIGARLPIERRKHVTQHAADHVVVLGRDDSPAADDADSFRTPRLSVSRSSGSAALNAFVFEGDEDLISHLLARFAFCMSEQWRKWFVKTEEALLRARLKLQMAKYETDFLPSLMRDNGLPCDPLSDEQWQDPLLQEYIVYFAVFQGKQQSRSREDYFSVPMTLATRLIKTRSVLCLKGHAILHRDQAQEVFVTVFRSKLNKGLHEAYLARMRLTSNEEDEERETVMRMLDAFLEYFVSDPTSAIQEAASGAVSAGEVRRIAQTHFPLCMRQVDEHLRREGHLKHHGRFTYGLFLKAIGLSLQDSMTLFSSLMTVKGVAGNSEAFAKTAYGYNIRHNYGMEGKKTSYSSMSCATLLALPPVVDRFDCHGCPFRFKDEGAFRSMLLKEQLNPLGKEHPPLRPSASDIEEIVQDCKGQHYTRACYKYFVATHPGVKRDTLFRSPFEYYTLSREVGERPEEILSEQTTPARRLMTGDSLKRSMFTPTLKEDVIRERKSPP”, the “soluble on expression in E. coli” value is reported as “not soluble”.
For “GPGSMQLDDWDTYRETLLYARELAVLLPSSWSELSSEQSATKSSSSLSHSSSLPSLAFVKRVEAPLLTQWMTAAAAAPVTCHCSSVGDSVEDMDYATAVVAARWTRMLGMWIVLRVELLCNTSGGVLTLAEEYEVGRYRQYFVPLAWPMLDRSIRERLAARLCALADKRRVSQPMGGTSCANDMAASSFCGTLLGKDEEDEQACDEVCTRAMEATQRVAREQLRISWDALHPSSIPATVGAKLKRLSAQQSRRHESETGSLPRPVVVHTNCLGGLLHALTSFRLRPQRQHADHGSAPLLTLTQNALLHIGYDLLTKVRSSVIERCYYLIPALLDYESCLLFCEAMLKESAALQAHEKELTRTQSILRLTLQSLLQSALGMYRHVIEALLVDYKKSACKSSASSTPRLVKVSAHLLPANPLVAQEAAQKQHASDAVVPSKPPTHPGAADGCSASAVMRLSEPAFSILVEVLEPTCDLLQRYPADWNVLWTRSLTGPDGRDQGATSGSHIAREGGLLSPSSRRQRLVSQQRQRSIAMDVRREVVSFLDAEVSNCFAAAAAGSGAASKKAQQQAAADAYLTATYLSAYGPHWL”, the “soluble on expression in E. coli” value was “not soluble”.
In the case of “GPGSMQTSQSLHTAPAEKEVEAPPQLPLTDGRCYACRRCRRILSEVQWYATGCVECSATMGVPDRDSLLDFATPHFHNFIGLIAPGQSWVARLIMKSREPTNGIFAETLSDDEPEDEENEIEPYVGDADEEEGPALLDGEDGAAEPVHELAAEAPE”, the “soluble on expression in E. coli” value is reported as “soluble”.
In the case of “GPGSMRCVRSAAVLVKFGRSFDSTTRFGKELGFSHKMRDIPVLTGNPRPVAREEEWSCRYKLTDRMEDVVMDILKKEGWCEAEVQREMSEIFERKTQGCRSSLNTWTTVEEFQRTPWYRRYKPTDTCVAKYISYEVVKLLEEALIPPSLRGDPYAHLRKRHMEDNWMNDRFSEEAAKYIQREDLNKHTKGLPQYGQITRRKFLEFDRQFKESYGGKQHVNEAYSAWLQSIGKG”, the “soluble on expression in E. coli” value is reported as “not soluble”.
